Ends that are not written are not given here.
B1: Aurora A wild-type kinase domain (untagged) (domain or fragment)
chain: FEIGRPLGKGKFGNVYLAREKQSKFILALKVLFKAQLEKAGVEHQLRREVEIQSHLRHPNILRLYGYFHDATRVYLILEYAPLGTVYRELQKLSKFDEQRTATYITELANALSYCHSKRVIHRDIKPENLLLGSAGELKIADFGWSVHAPSSRRTTLCGTLDYLPPEMIEGRMHDEKVDLWSLGVLCYEFLVGKPPFEANTYQETYKRISRVEFTFPDFVTEGARDLISRLLKHNPSQRPMLREVLEHPWI
B2: linear TPX2_((7–43)) peptide (peptide)
peptide: LSYSYDAPSDFINFSSLDDEGDTQNIDSWFEEKANLENLKGGGCQM
notes: residue before the TPX2 stretch in the printed peptide; TPX2, human, residues 7-43; C-terminal extension of the printed peptide with the cysteine handle; Used free in ITC and immobilised through the cysteine on CM5 in SPR; also called TPX2 peptide; TPX-2 peptide; source: E. coli BL21(DE3), KSI fusion (pET31b), inclusion bodies, Ni-NTA, CNBr cleavage, reverse-phase HPLC
B3: Alexa Fluor 488-TPX2_((7–43)) peptide (peptide)
peptide: LSYSYDAPSDFINFSSLDDEGDTQNIDSWFEEKANLENLKGGGC(Alexa Fluor 488‑maleimide)QM
notes: residue before the TPX2 stretch in the printed peptide; TPX2, human, residues 7-43; C-terminal extension of the printed peptide with the cysteine that is labelled; As m10, labelled; the methods speak of 'free N-terminal cysteines' but the only cysteine of the printed peptide is near its C-terminus; also called Alexa Fluor 488-labeled TPX2 peptide; labeled wild-type TPX2 peptide; source: E. coli …

Columns and labels:
Details in all cases: both partners purified
[1] = biological target: B3; assay: fluorescence polarisation; fluorescence anisotropy, direct titration of Aurora A wild type into 10 nM Alexa Fluor 488-TPX2 peptide, 25°C, HEPES pH 7.4, 0.1 M Mg(CH3COO)2, 100 mM NaCl, 1 mM ATP, 1 mM DTT, 0.01% P20; quadratic single-site equation
[2] = biological target: T1, Aurora A_(D274N) kinase domain (human, UniProt O14965 122-403, D274N); assay: ITC; itc200, 25°C, 10 mM HEPES pH 7.4, 500 mM NaCl, 0.05% P20; 50 μM titrant into 5 μM Aurora A D274N, 100 μM CK2β peptide or RAD-CK2β into 10 μM CK2α; single-site model
T1 construct: Aurora A kinase, human, kinase domain residues 122-403, kinase dead D274N; theoretical mass 33.8 kDa; Cloned into pHAT5 in frame with a C-terminal 6xHis-tag; also called kinase dead human Aurora A D274N mutant; source: E. coli BL21(DE3), purified (HisTrap HP, Superdex 75 SEC); not shown: His6, C-terminal, kept
T1 sequence (looked up): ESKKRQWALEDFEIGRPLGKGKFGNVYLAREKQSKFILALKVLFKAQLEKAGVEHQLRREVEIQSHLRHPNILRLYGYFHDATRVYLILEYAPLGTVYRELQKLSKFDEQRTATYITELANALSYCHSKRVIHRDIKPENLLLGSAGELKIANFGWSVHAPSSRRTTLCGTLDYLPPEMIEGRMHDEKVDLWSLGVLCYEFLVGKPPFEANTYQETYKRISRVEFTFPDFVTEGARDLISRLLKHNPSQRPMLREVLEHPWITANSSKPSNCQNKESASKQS

[3] = biological target: T1, Aurora A_(D274N) kinase domain; assay: SPR; Biacore T100, CM5, peptides or cRAD display proteins immobilised through their cysteine (240-400 RU), kinase as analyte 2.5 nM-2.5 μM, 25°C, 10 mM HEPES pH 7.4, 500 mM NaCl, 0.05% P20; 1:1 steady-state affinity model; CK2α data analysed at 200 s post-injection
[4] = biological target: T1, Aurora A_(D274N) kinase domain; assay: fluorescence polarisation; fluorescence anisotropy, direct titration of kinase (CK2α 2 nM-2 μM; Aurora A D274N 2 nM-1.5 μM) into labelled peptide or display protein; 10 mM HEPES pH 7.4, 500 mM NaCl, 1 mM DTT, 0.05% P20; room temperature; 1:1 model

With B1 the Kd [1] was 2.1 nM.

In the case of B2, the Kd [2] is reported as 115 nM and the Kd [3] is reported as 72 nM.

In the case of B3, the Kd [4] is reported as 74 nM.

From article PMC5897841, “Development of a multipurpose scaffold for the display of peptide loops” (Protein Engineering, Design and Selection, 2017)
